In the nanobody polyreactivity screen of Harvey et al. (2022):

Assay: yeast display, Sf9 membrane polyspecificity reagent, FACS + sequencing; frameworks hold sequencing errors
Method in brief: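 Sorting gates, low and high (top ~1%), were placed on anti-HA fluorescence to track expression and on streptavidin fluorescence to track reagent binding. A clone's polyreactivity label is taken from the gate it came out of. The reagent was 10% biotinylated, detergent-solubilized Sf9 membrane, applied for 1 hour at 4 °C to galactose-induced yeast display cells.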

| Sequence | polyreactivity (PSR sort gate) |
| --- | --- |
| QVQLVESGGGLVQAGGSLRLICAASGSTFPGYAMGWYRQAPGKERELVATITRRGGSTYYADSVKGRFTISRDNAKNTVYLQMNSLKPEDTAVYYCNAVDYTVWLFPYDTGVDYWGQGTQVTVSS | low polyreactivity |
| QVQLVESGGGLVQAGGSLRLSCAASGITLARNAMGWYRQAPGKERELVASITWSGGTTYYADSVKGRFTISRDNAKNTVYLQMNSLKPEDTAVYYCAASAKLHFYRTYRYNYWGQGTQVTVSS | high polyreactivity |
| QVQLVESGGGLVQAGGSLRVSCAASGRIFFPYDMGWYRQAPGKERELVAAITNSGGRTYYADSVKGRFTISRDKAKNTVYLQMNSLKPEDTAVYYCNADAYEFRWVKHYDYWGQGTQVTVSS | low polyreactivity |
| QVQLQESGGGLVQAGGSLRLSCAASGNIVVADIMGWYRQAPGKERELVASITDGGSTNYADNVKGRFTISRDNAKNTVYLQMNSLIPEDTAVYYCAANAFPDIPTYFVYDYDYFYWGQGTQVTVSG | high polyreactivity |
| QVQLVESGGGLVQAGGSLRLRCAASGFTFGRYAMGGYRQAPGKERELVAGITSGGSTYYADSVKGRFTISLDNAKNTVYLQMNSLKPEDTAVYYCITKVISRTSERRGNGFTRYDYWGQGTQVTVSS | low polyreactivity |
| QVQLQESGGGLVQAGGSLRLSCAASGNIFEADIMGWYHQAQGKERELVASITDGGSTNYADSVKGRFTINRDNAKNNVYLQMNSLKPADTAVYYCAAIAYPDIPTYFDYDSDYFYWGQGTQVTVSS | high polyreactivity |
| QVQLVESGGCLVQAGGSLRLSCAASGSTFLKYTMGWYRQAPGKERELVAAITASGGRTYYADSVKGRFTISRDNAKITVYLQMNSLKPEDTAVYYCAARGFDRYYWGQGTQVTVSS | high polyreactivity |
| QVQLVESGGGLVKAGGSLRFSCAASGSIFHPYELGWKTQAPRKESDLVAGISRSGTSTYYADSVKGRFTISRDNAKNTVYLQMNSLKPEDTAVYYCYKVLVGSNRGEYDYWGQGTQVTVSS | low polyreactivity |
| QVQLVESGGGLVQAGGSLRLSCAASGSTFWYYTMGWYRQAPGKERELVAGITSGGSTYYADSVKGRFTISRDNAKNTVYLQMNSLKPEDTAVYYCAKRYYGRGYYYWGQGTQVTVSS | high polyreactivity |
| QVQLVESGGGLVQAGGSLRLSCAASGGTFAVNVMGWYRQAPGKERELVAAITSNGGSTYYADSVKGRFTISRDNAKNTVYLQMNSLTPEATAVYYCAAEGSGWYTGHYYYWGQGTQVTVSS | low polyreactivity |
| QVQLVESGGGLVQAGGSLRLSCAASGITFHYNAMGWYRQAPGKERELVAAISGSGSNTYYADSVKGRFTISRDNAKNTVYLQMNSLKPEDTAVYYCAKYYYSSNKWMDYWGQGTQVTVSP | high polyreactivity |
| QVQLVESGGGLVQAGGSLRLSCAASGSSFWSNAMGWYRQAPGKEREFVAAINWSGDNTYYADSVKGRFTISRDNSKNKVYLKLISLKPEDTAVYYCIGVGDYPKYSGGFDYCGQGTQVTVSS | low polyreactivity |
| QVQLVESGGGLVQAGGSLRLSCAASGRIFKYYAMGWYRQAPGKERELVAAITYSGGSTYADSVKGRFTISRDNAKNTVYLQMNSLKPEDTAVYYCAVARRSRVVSSIRGDYWGQGTQVTVSS | high polyreactivity |
| QVQLVESGGGFVQAGVSLRLSCAASGSIYYNAMGWYIQAPGKERELVAGITSSGGSTYYADSVKGRFTISRDNAKNTVYLQMISLKPEDTAVYFCAADFVYLCTLFGAYDYCGQGTQVTVSS | low polyreactivity |
| QVQLVESGGGLVQAGGSLRLSCAASGRIFSTYAMGWYRQAPGKERELVAAITWDGRTYYADSVKGRFTISRDNAKNTVYLQMNSLKPEDTAVYYCAADGEYRYDWEYESWGQGTQVTVSS | low polyreactivity |
| QVQLVDSGGGLVQAGGSLRLSCAASGSIFSFYAMGGSRQAPGKERELVAAIDGGGSTDYADSVKGRFTISRDHAKYTVYLQMNSLKPEDTAVYDCAARDIYHYDWGQGTQVTVSS | low polyreactivity |
| QVQLVESGGGLVQAGGSLRLSCAASGITFGKNAMVWYRQAPGKEREFDAAISWGGGRTYYADSVKGRFTISRDNAKNTVYLQMNSLKPEDTAVYYCNVGPRAGWYRSNYDYWGQGTQVTVSS | low polyreactivity |
| QVQLVESGGGLFQAGGSLRLSCAASGSTFDTYAMGWYRQAPGKERELVAAISYRGGNTYYADSVKGRFTISRDNAKNTVYLQMNSLKPEDTAVYYCNAGVSIGRSRRYDYWGQGTQVTVSS | low polyreactivity |
| QVQLGESGGGLVQAGGCLRLSCAASGSIFAANAMGWYRQAPGKERELVAAINSGDSTNYADSVKGRFTISRDYAKKTVYLQMNSLKPEDTAVYYCARGLEERYDYWGQGTQVTVSS | low polyreactivity |
| QVQLVESGGCLVQAGGSLRLSCAASVRIFQIYAMGWYRQAPGKERELVATISSGTRTYYADSVKGRFTMSRDNAKNTVYLQMNSLKPEDTAVYYCAKTYATRHAYWAGTRYEDDYWGQGTQVTVSS | high polyreactivity |
| QVQLVESGGGLVQAGGSLRLSCAASGSTFTYNAMGWYRQAPGKERELVAAITGRGGSTYADSVKGRFTISRDNAKNTVYLQMNSLKPEDTAVYYCAARRPYGYRWHTSVPSLDYWGQGTQVTVSS | low polyreactivity |
| QVQHEESAGGLVQAGGSLRVSCAASGIIFYDYAMGWYRQAAGKERELVAAITSVGSTNYADSVKGRFTISRDYAKNTVYLQMISLKPDDTAVYYCDAEVYVPDYFQHIFDVEYEYWGQGTQVTVSS | low polyreactivity |

| Sequence | polyreactivity (PSR sort gate) |
| --- | --- |
| QVHLVESGGGLVQAGGSLRLSCAASGRIFVTYAMGWYRQAPGKERELVAAIPWDGDSTYYADSVKGRFTFSRDNAKNTVYLQMNSLKREDTAVYYCNAKKFNSHVELGYDYWGQGTQVTVSS | low polyreactivity |
| QVQLVESGGGLVQAGGSLRLSCAASGFIFKHYAMGWYRQAPGKERELVAAITISASRTYYADSVKGRFTISRDNAKNTVYLQMNSLKPEDTAVYYCARRLLRGSDWGQGTQVTVSS | high polyreactivity |
| QVQLVESGGGLVQAGGSLRLSCAASGRIFGRYAMGWYRQAPGKERELVAAITSSGRTYYADSVKGRFTISRDNAKNTVYLQMNSLKPEDTAVYYCNAVARYTKYNYWGQGTQVTVSS | high polyreactivity |
| QVQLVESGGGLVQAGGSLRLSCAASGLTLKTYAMGWYRQAPGKERELVAGISASGGSTYYADSVKGRFTISRDIAKNTVYLQLNSLKPVDTAVYYCAKVTRAYRAYYYWGQGTQVTVSS | high polyreactivity |
| QVQLVESGRGLVQAGGSLRLSCAASGLTFGHYAMGGYRQAPGKERELVAAITSGGRTYYADSVKGRFTISRDNAKNTVYLQMNSLKPEDTAVYYCATRGPRYRYYYWGQGTQVTVSS | high polyreactivity |
| QVQLVESGGGLVQAGGSLRLRCAASGITFTINAMGWYRQAPGTEGELVATISINGGSTNYADSVKGRFTISRDNAKNTVYLQMNSLKPEDTAVYYCAADALGPFRFQFFYTTAYVYWGQGTQVTVSS | low polyreactivity |
| QVQLVESGGGLVQAGGSLRLSCAASGFIFYSYAMGWYRQAPGKERELVAAITEDGDSTYYADSVKGRFTISRDNAKNTVYLQMNSLKPEDTAVYYCNTDLTFNGTSGDYDYWGQGTQVTVSS | low polyreactivity |
| QVQLVESGGGLVQAGGSLRLSCAASGGIFAVYAMGWYRQAPGKERELVAAITWRGGSTRYADSVKGRFTISRDNAKNTVHLQMNSLIPEDTAVYYCAVRSTGYPSRYYYWGQGTQVTVSS | high polyreactivity |
| QVQLVESGGGLVQAGGSLRLSCAASGFIFDLYAMGWYRQAPGKERELVAAITYSGGSTYYADSVKGRFTISRDNAKNTVYLQMNSLKPEDTAVYYCATVEKFYEYDHWGQGTQVTVSS | low polyreactivity |
| QVQHVESGGGLVQAGGSLRLSCAASGSTLGGYVMGWYRQAPGKERELVASITYSGGSTRYADSVKGRFTISRDNAKNTVYLQMNSLKPEDTAVYYCAAGAQRTYYTYSFRRVGYDYDYWGQGTQVTVSS | low polyreactivity |
| QVQLVESGGGLVQAGGSLRLRCDASGLIFYDNMGWYRQAPGKERELVAAISSSGGSTSYADSVKGRFTISRDNAKNTVYLQMNSLKPEDTAVYYCAADSYPAYLGFVGFDYWGQGTQVTVSS | low polyreactivity |
| QVQLVESGGGLVQAGGSLRLSCAASGRTFRYYTMGWYRQAPGKERELVAAISWSSGSTYYADSVKGRFTISRDNAKNTVYLQMNSLKPEDTAVYYCAASRVRREYVGQDVGFVGYDSWGQGTQVTVSS | high polyreactivity |
| QVQLVESGGGLVQAGGSLRLSCAASGSIFYFYTMGWYRQAPGKEREFVAAINGIGGSTYYADSVKGRFTISRDNAKNTVYLQMNSLKPEDTAVYYCAADAPWFKRNARKYNYWGQGTQVTVSS | low polyreactivity |
| QDQLVESGGGLVQAGGSLRLSCAASGLIIRWYAMGWDRQAPGKERELVAAISGNGGRTYYADSVKGRFTISRDNASNTVYLQMNSLKPEDTAVYYCAAEYRRALGVDYWGQGTQVTVSW | high polyreactivity |
| QVQLVESGGGLVQAGGSLRLSCAASGRIITWYAMGCYRQAPGKERELVAAISWSGGSTYYADSVTGRFTISRDNAKNTVYLQMNSLKPEDTAVYYCNKVTVTGLYDYWGQGTQVTVSS | high polyreactivity |
| QVQLVESGGGLVQAGGSLRLSCAASGSIFRIYAMGWYRQAPGKERELVAAITKRGGSTYYADSVKGRFTISRDNAKNTVYLQMNSLKPEDTAVYYCAARFYSGYSYDYWGHGTQVTVSS | high polyreactivity |
| QVQLVESGGGLVQAGGSLRLSCAASGFTFTYYAMGWYRQAPGKERELVAVITRSGNTYYADSVKGRFTISRDNAKNTVYLQMNSLKPEDTAVYYCATVGQRLHLGYWGQGTQVTVSS | high polyreactivity |
| QVQLVDSGGGLVQAGGSLRLSCAASGFIFWYYAMGWYRQEPRKERELVAAITSGGNTNYADSVKGRFTISRDNAKNTVYLQMNSLKPEDTAVYYCATGRASGREHDSWGQGTQVTVSS | low polyreactivity |
| QVQLVESGGGLVQAGGSLRLSCAASGRIFRHYAMGWYRQAPGKERELFAAIDWDGDTTYYADSVKGRFTISRDNAKNTVYLQMNSLKPEDNAVSYCAAEFYSLGKAIYEYWGQGTQVTVSS | high polyreactivity |
| QVQLVESGGGLVQAGGSLRLSCAASGHIYFYYTMGWYRQAPGKERDLVAGITIGGSTNYADSVKGRFTISRDNAKNTVYLQMNSLKPEDTAVYYCNVVKYVYIYSYWEYYYWGQGTQVTVSS | low polyreactivity |
| QDQLVESGGGLVQAGGSLRLSCAASGRTFEGNAMGWYRQAPGKERELVAAITSGGRTNYADSVKGRFTISRDNAKNTVYLQMNSLKPEDTEVYYCANVYRSIGPNVSRYGLSYYYWGQGTQVTVSS | low polyreactivity |
